Target: T1, FcγRIIIa (human, UniProt P08637 17-208)
T1 construct: extracellular domain; also called 3a; FcγRIIIa extracellular domain
Assay: SPR (Biacore);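 further: antibody variants captured on an SPR sensor chip, with FcγRIIIa passed over as analyte in HBS-EP+ buffer at 25 °C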
Procedure: The antibody of interest was analyzed for its interaction with FcγR using a BiaCore™ T100, BiaCore™ A100, or BiaCore™ 4000 surface plasmon resonance system (GE Healthcare Japan Corp.). The running buffer used was HBS-EP+ (GE Healthcare Japan Corp.). The assay temperature was set to 25° C. The sensor chips used were: a chip prepared by immobilizing antigenic peptides onto Series S Sensor Chip CM5 (GE Healthcare Japan Corp.) by the amine coupling method; a chip prepared by immobilizing antigenic peptides biotinylated in advance onto Series S Sensor Chip SA (certified) (GE Healthcare Japan Corp.) through their interaction; a chip prepared by immobilizing protein L (ACTIGEN, BioVision, Inc.) onto Series S Sensor Chip CM5 (GE Healthcare Japan Corp.); and a chip prepared by immobilizing protein A/G (Thermo Fisher Scientific K.K.) onto Series S Sensor Chip CM5 (GE Healthcare Japan Corp.). The antibody of interest was captured onto any of these chips and allowed to interact with FcγR diluted with a running buffer. The antibody captured on the chip was washed off through the reaction of 10 mM glycine-HCl (pH 1.5) to regenerate the chip, which was repetitively used.

T1 sequence (P08637 other isoform, or with tags, fused parts or gaps): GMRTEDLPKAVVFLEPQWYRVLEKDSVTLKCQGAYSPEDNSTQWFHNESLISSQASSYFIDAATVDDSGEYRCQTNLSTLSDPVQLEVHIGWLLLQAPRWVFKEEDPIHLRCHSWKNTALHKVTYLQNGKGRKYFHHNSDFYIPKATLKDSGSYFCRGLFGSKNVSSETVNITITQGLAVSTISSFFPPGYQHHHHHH

Row | Binder | He/Con 3a
1 | GpH7-A5/GpH7-B3 variant H268_14T/GpL16-k0 (antibody, human IgG1, kappa, copies: 1 + 1 + 2) heavy 1: not shown heavy 2: not shown light: DIVMTQSPLSLPVTPGEPASISCQASESLVHSNRNTYLHWYLQKPGQSPQLLIYKVSNRFSGVPDRFSGSGSGTDFTLKISRVEAEDVGVYYCSQNTHVPPTFGQGTKVEIERTVAAPSVFIFPPSDEQLKSGTASVVCLLNNFYPREAKVQWKVDNALQSGNSQESVTEQDSKDSTYSLSSTLTLSKADYEKHKVYACEVTHQGLSSPVTKSFNRGEC | 90.3 % of GpH7-A5/GpH7-B3/GpL16-k0
2 | GpH7-A5/GpH7-B3 variant I332_03V/GpL16-k0 (antibody, human IgG1, kappa, copies: 1 + 1 + 2) heavy 1: not shown heavy 2: not shown light: DIVMTQSPLSLPVTPGEPASISCQASESLVHSNRNTYLHWYLQKPGQSPQLLIYKVSNRFSGVPDRFSGSGSGTDFTLKISRVEAEDVGVYYCSQNTHVPPTFGQGTKVEIERTVAAPSVFIFPPSDEQLKSGTASVVCLLNNFYPREAKVQWKVDNALQSGNSQESVTEQDSKDSTYSLSSTLTLSKADYEKHKVYACEVTHQGLSSPVTKSFNRGEC | 85.2 % of GpH7-A5/GpH7-B3/GpL16-k0
3 | GpH7-A5/GpH7-B3 variant I332_09D/GpL16-k0 (antibody, human IgG1, kappa, copies: 1 + 1 + 2) heavy 1: not shown heavy 2: not shown light: DIVMTQSPLSLPVTPGEPASISCQASESLVHSNRNTYLHWYLQKPGQSPQLLIYKVSNRFSGVPDRFSGSGSGTDFTLKISRVEAEDVGVYYCSQNTHVPPTFGQGTKVEIERTVAAPSVFIFPPSDEQLKSGTASVVCLLNNFYPREAKVQWKVDNALQSGNSQESVTEQDSKDSTYSLSSTLTLSKADYEKHKVYACEVTHQGLSSPVTKSFNRGEC | 189 % of GpH7-A5/GpH7-B3/GpL16-k0
4 | GpH7-A5/GpH7-B3 variant H268_07I/GpL16-k0 (antibody, human IgG1, kappa, copies: 1 + 1 + 2) heavy 1: not shown heavy 2: not shown light: DIVMTQSPLSLPVTPGEPASISCQASESLVHSNRNTYLHWYLQKPGQSPQLLIYKVSNRFSGVPDRFSGSGSGTDFTLKISRVEAEDVGVYYCSQNTHVPPTFGQGTKVEIERTVAAPSVFIFPPSDEQLKSGTASVVCLLNNFYPREAKVQWKVDNALQSGNSQESVTEQDSKDSTYSLSSTLTLSKADYEKHKVYACEVTHQGLSSPVTKSFNRGEC | 84.1 % of GpH7-A5/GpH7-B3/GpL16-k0
5 | GpH7-A5/GpH7-B3 variant I332_12R/GpL16-k0 (antibody, human IgG1, kappa, copies: 1 + 1 + 2) heavy 1: not shown heavy 2: not shown light: DIVMTQSPLSLPVTPGEPASISCQASESLVHSNRNTYLHWYLQKPGQSPQLLIYKVSNRFSGVPDRFSGSGSGTDFTLKISRVEAEDVGVYYCSQNTHVPPTFGQGTKVEIERTVAAPSVFIFPPSDEQLKSGTASVVCLLNNFYPREAKVQWKVDNALQSGNSQESVTEQDSKDSTYSLSSTLTLSKADYEKHKVYACEVTHQGLSSPVTKSFNRGEC | 78.1 % of GpH7-A5/GpH7-B3/GpL16-k0
6 | GpH7-A5/GpH7-B3 variant I332_06M/GpL16-k0 (antibody, human IgG1, kappa, copies: 1 + 1 + 2) heavy 1: not shown heavy 2: not shown light: DIVMTQSPLSLPVTPGEPASISCQASESLVHSNRNTYLHWYLQKPGQSPQLLIYKVSNRFSGVPDRFSGSGSGTDFTLKISRVEAEDVGVYYCSQNTHVPPTFGQGTKVEIERTVAAPSVFIFPPSDEQLKSGTASVVCLLNNFYPREAKVQWKVDNALQSGNSQESVTEQDSKDSTYSLSSTLTLSKADYEKHKVYACEVTHQGLSSPVTKSFNRGEC | 92.5 % of GpH7-A5/GpH7-B3/GpL16-k0

Further lines, results first:

Row | He/Con 3a | Binder
7 | 79.5 % of GpH7-A5/GpH7-B3/GpL16-k0 | GpH7-A5/GpH7-B3 variant H268_06M/GpL16-k0 (antibody, human IgG1, kappa, copies: 1 + 1 + 2) heavy 1: not shown heavy 2: not shown light: DIVMTQSPLSLPVTPGEPASISCQASESLVHSNRNTYLHWYLQKPGQSPQLLIYKVSNRFSGVPDRFSGSGSGTDFTLKISRVEAEDVGVYYCSQNTHVPPTFGQGTKVEIERTVAAPSVFIFPPSDEQLKSGTASVVCLLNNFYPREAKVQWKVDNALQSGNSQESVTEQDSKDSTYSLSSTLTLSKADYEKHKVYACEVTHQGLSSPVTKSFNRGEC
8 | 103 % of GpH7-A5/GpH7-B3/GpL16-k0 | GpH7-A5/GpH7-B3 variant H268_18N/GpL16-k0 (antibody, human IgG1, kappa, copies: 1 + 1 + 2) heavy 1: not shown heavy 2: not shown light: DIVMTQSPLSLPVTPGEPASISCQASESLVHSNRNTYLHWYLQKPGQSPQLLIYKVSNRFSGVPDRFSGSGSGTDFTLKISRVEAEDVGVYYCSQNTHVPPTFGQGTKVEIERTVAAPSVFIFPPSDEQLKSGTASVVCLLNNFYPREAKVQWKVDNALQSGNSQESVTEQDSKDSTYSLSSTLTLSKADYEKHKVYACEVTHQGLSSPVTKSFNRGEC
9 | 89.3 % of GpH7-A5/GpH7-B3/GpL16-k0 | GpH7-A5/GpH7-B3 variant I332_04F/GpL16-k0 (antibody, human IgG1, kappa, copies: 1 + 1 + 2) heavy 1: not shown heavy 2: not shown light: DIVMTQSPLSLPVTPGEPASISCQASESLVHSNRNTYLHWYLQKPGQSPQLLIYKVSNRFSGVPDRFSGSGSGTDFTLKISRVEAEDVGVYYCSQNTHVPPTFGQGTKVEIERTVAAPSVFIFPPSDEQLKSGTASVVCLLNNFYPREAKVQWKVDNALQSGNSQESVTEQDSKDSTYSLSSTLTLSKADYEKHKVYACEVTHQGLSSPVTKSFNRGEC
10 | 75.9 % of GpH7-A5/GpH7-B3/GpL16-k0 | GpH7-A5/GpH7-B3 variant H268_08L/GpL16-k0 (antibody, human IgG1, kappa, copies: 1 + 1 + 2) heavy 1: not shown heavy 2: not shown light: DIVMTQSPLSLPVTPGEPASISCQASESLVHSNRNTYLHWYLQKPGQSPQLLIYKVSNRFSGVPDRFSGSGSGTDFTLKISRVEAEDVGVYYCSQNTHVPPTFGQGTKVEIERTVAAPSVFIFPPSDEQLKSGTASVVCLLNNFYPREAKVQWKVDNALQSGNSQESVTEQDSKDSTYSLSSTLTLSKADYEKHKVYACEVTHQGLSSPVTKSFNRGEC
11 | 76 % of GpH7-A5/GpH7-B3/GpL16-k0 | GpH7-A5/GpH7-B3 variant I332_08L/GpL16-k0 (antibody, human IgG1, kappa, copies: 1 + 1 + 2) heavy 1: not shown heavy 2: not shown light: DIVMTQSPLSLPVTPGEPASISCQASESLVHSNRNTYLHWYLQKPGQSPQLLIYKVSNRFSGVPDRFSGSGSGTDFTLKISRVEAEDVGVYYCSQNTHVPPTFGQGTKVEIERTVAAPSVFIFPPSDEQLKSGTASVVCLLNNFYPREAKVQWKVDNALQSGNSQESVTEQDSKDSTYSLSSTLTLSKADYEKHKVYACEVTHQGLSSPVTKSFNRGEC

— patent US20260167699A1 (Chugai, published 2026)
